B1: KR: first protein KillerRed, ROS-generating protein (superoxide), expressed from pRSET-KillerRed, 31 kDa (protein)
chain: MRGSHHHHHHGMASMTGGQQMGRDLYDDDDKDPMLCCMRRTKQVEKNDEDQKISEGGPALFQSDMTFKIFIDGEVNGQKFTIVADGSSKFPHGDFNVHAVCETGKLPMSWKPICHLIQYGEPFFARYPDGISHFAQECFPEGLSIDRTVRFENDGTMTSHHTYELDDTCVVSRITVNCDGFQPDGPIMRDQLVDILPNETHMFPHGPNAVRQLAFIGFTTADGGLMMGHFDSKMTFNGSRAIEIPGPHFVTIITKQMRDTSDKRDHVCQREVAYAHSVPRITSAIGSDED
modifications: pRSET-KillerRed
notes: first protein KillerRed, ROS-generating protein (superoxide), expressed from pRSET-KillerRed, 31 kDa
B2: RLuc8.6-KR: fusion protein of RLuc8.6 and KillerRed without lead peptide, 69 kDa (protein)
chain: MRGSHHHHHHGMASMTGGQQMGRDLYDDDDKDPMASKVYDPEQRKRMITGPQWWARCKQMNVLDSFINYYDSEKHAENAVIFLHGNATSSYLWRHVVPHIEPVARCIIPDLIGMGKSGKSGNGSYRLLDHYKYLTAWFELLNLPKKIIFVGHDWGSALAFHYAYEHQDRIKAIVHMESVVDVIESWMGWPDIEEELALIKSEEGEKMVLENNFFVETLLPSKIMRKLEPEEFAAYLEPFKEKGEVRRPTLSWPREIPLVKGGKPDVVQIVRNYNAYLRASDDLPKLFIESDPGFFYNAIVEGAKKFPNTEFVKVKGLHFLQEDAPDEMGKYIKSFVERVLKNEQEFGGGMLCCMRRTKQVEKNDEDQKISEGGPALFQSDMTFKIFIDGEVNGQKFTIVADGSSKFPHGDFNVHAVCETGKLPMSWKPICHLIQYGEPFFARYPDGISHFAQECFPEGLSIDRTVRFENDGTMTSHHTYELDDTCVVSRITVNCDGFQPDGPIMRDQLVDILPNETHMFPHGPNAVRQLAFIGFTTADGGLMMGHFDSKMTFNGSRAIEIPGPHFVTIITKQMRDTSDKRDHVCQREVAYAHSVPRITSAIGSDED
modifications: pRSET-RLuc8.6-KillerRed
B3: RLuc8.6-KR-LP: fusion protein of RLuc8.6, KillerRed and lead peptide WLEAAYQRFL, 71 kDa (protein)
chain: MRGSHHHHHHGMASMTGGQQMGRDLYDDDDKDPMASKVYDPEQRKRMITGPQWWARCKQMNVLDSFINYYDSEKHAENAVIFLHGNATSSYLWRHVVPHIEPVARCIIPDLIGMGKSGKSGNGSYRLLDHYKYLTAWFELLNLPKKIIFVGHDWGSALAFHYAYEHQDRIKAIVHMESVVDVIESWMGWPDIEEELALIKSEEGEKMVLENNFFVETLLPSKIMRKLEPEEFAAYLEPFKEKGEVRRPTLSWPREIPLVKGGKPDVVQIVRNYNAYLRASDDLPKLFIESDPGFFYNAIVEGAKKFPNTEFVKVKGLHFLQEDAPDEMGKYIKSFVERVLKNEQEFGGGMLCCMRRTKQVEKNDEDQKISEGGPALFQSDMTFKIFIDGEVNGQKFTIVADGSSKFPHGDFNVHAVCETGKLPMSWKPICHLIQYGEPFFARYPDGISHFAQECFPEGLSIDRTVRFENDGTMTSHHTYELDDTCVVSRITVNCDGFQPDGPIMRDQLVDILPNETHMFPHGPNAVRQLAFIGFTTADGGLMMGHFDSKMTFNGSRAIEIPGPHFVTIITKQMRDTSDKRDHVCQREVAYAHSVPRITSAIGSDEDGGGWLEAAYQRFL
modifications: pRSET-RLuc8.6-KillerRed-Lead peptide

Legend:
[1] = Fluorescence assay of purified proteins (excitation/emission); type: physicochemical; details: protein 10 μM in 1×PBS
Description: 100 μL of buffer (1×PBS) containing the protein purified in Example 1 (final concentration: 10 μM) was dispensed into a 96-well plate (SPL Cell Culture Plate, 96 well (SPL, Cat #32096)). Afterward, a fluorescence signal level was detected by fluorescence assay using a Thermo Scientific™ Varioskan™ Flash Multimode Reader.

[2] = Bioluminescence assay of purified proteins with Co-h substrate (BRET); type: physicochemical; details: protein 1 μM, Co-h 50 μM, 1×PBS
Description: In addition, 100 μL of buffer (1×PBS) containing the protein purified in Example 1 (final concentration: 1 μM) was dispensed into a 96-well plate (SPL Cell Culture Plate, 96 well (SPL, Cat #30196)), and bioluminescence assay was then performed using 50 μL of buffer (1×PBS) containing a Co-h substrate solution (final concentration: 50 μM), which is a wild-type 2-deoxy derivative. Bioluminescence intensity was immediately measured at a wavelength of 300 to 800 nm using a Thermo Scientific™ Varioskan™ Flash Multimode Reader.

MCF-7 cells = test: Flow cytometric analysis of KR, SYTOX Green and DAPI; type: cell-based, human
Description: MCF-7 cells were seeded at 5×10^5 cells/mL in a 96-well plate (SPL Cell Culture Plate, 96 well (SPL, Cat #30096)), and cultured at 37° C. for 24 hours (overnight). After the culture, the cells were washed with FBS & Phenol red-free media (RPMI), and 100 μL of FBS & Phenol red-free media (RPMI) containing a purified protein (final concentration: 10 μM), followed by reaction at 37° C. for 24 hours (overnight).
After washing with KillerRed: FBS & Phenol red-free media (RPMI), the cells were detached by treating 100 μL of Trypsin EDTA (Gibco™), and then centrifuged at 1,000 rpm for 3 minutes. The cells were filtered through a cell strainer (SPL, cat #93070) and resuspended in 400 μL of 1×DPBS containing 5% FBS.
The cells were washed with SYTOX Green: FBS & Phenol red-free media (RPMI), and 100 μL (final concentration: 150 μM) of FBS & Phenol red-free media (RPMI) containing a Co-h substrate solution was added, followed by incubation for 24 hours at 37° C. 50 μL of SYTOX Green (final concentration: 261 nM) staining DNA of dead cells was added without washing the cells, followed by reaction at 37° C. for 30 minutes. Without washing, the cells were detached by treatment with 100 μL of trypsin EDTA (Gibco™), and centrifuged at 1,000 rpm for 3 minutes. The cells were filtered through a cell strainer (SPL, cat #93070) and resuspended in 400 μL of 1×DPBS containing 5% FBS.
The cells were washed with DAPI: FBS & Phenol red-free media (RPMI), and 100 μL (final concentration: 150 μM) of FBS & Phenol red-free media (RPMI) containing a Co-h substrate solution was added, followed by incubation for 24 hours at 37° C. The cells were washed with FBS & Phenol red-free media (RPMI), and then 100 μL of media (RPMI) was added thereto. 10 μL of DAPI staining DNA of live cells was added, followed by reaction at 37° C. for 30 minutes. The cells were detached by treatment with 100 μL of trypsin EDTA (Gibco™) without washing, followed by centrifugation at 1,000 rpm for 3 minutes. The cells were filtered through a cell strainer (SPL, cat #93070) and resuspended in 400 μL of 1×DPBS containing 5% FBS.

BT-474 = test: Cell death with Co-h substrate by cell type (SYTOX Green or EthD-1/DAPI); type: cell-based, human; details: BT-474, protein 10 μM, Co-h 150 μM for 5 minutes
Description: (§1) The cells were seeded at 5×10^5 cells/mL in 96-well plates (SPL Cell Culture Plate, 96 well (SPL, Cat #30096)), and cultured at 37° C. for 24 hours (overnight). After the culture for 24 hours, the cells were washed with FBS & phenol red-free media, and 100 μL of FBS & phenol red-free media containing a purified protein (final concentration: 10 μM) was added, followed by reaction at 37° C. for 24 hours.
(§2) Subsequently, the cells were washed with FBS & phenol red-free media, and 100 μL of FBS & phenol red-free media was added. 100 μL of FBS & Phenol red-free media (RPMI) containing a Co-h substrate solution (final concentration: 150 μM) was added, followed by reaction at 37° C. for 5 minutes.
(§3) After the reaction, 50 μL of SYTOX Green (final concentration: 261 nM) or 90 μL of ethidium homodimer (EthD-1) (final concentration 1×), which stains DNA of dead cells, was added, followed by reaction at 37° C. for 30 minutes. 10 μL of DAPI staining DNA of live cells was added, followed by reaction for 5 minutes. Cell death was confirmed by observing KillerRed, SYTOX Green, MiniSOG, EthD-1 and DAPI fluorescence using a confocal microscope.

MCF-10A = test: as above; type: cell-based, human; details: protein 10 μM, Co-h 150 μM for 5 minutes
Description: as §1, §2, §3

SK-BR-3 = test: as above; type: cell-based, human; details: SK-BR-3, protein 10 μM, Co-h 150 μM for 5 minutes
Description: as §1, §2, §3

MDA-MB-435 = test: Cell death after light irradiation by cell type (SYTOX Green/DAPI); type: cell-based, human; details: MDA-MB-435, protein 10 μM, light 10 mW/cm^2 for 10 minutes
Description: MDA-MB-435: (Origin: breast, mammary gland, Species: human—person, Media: DMEM with glucose (4.5 g/L), L-glutamine and sodium pyruvate, 90%; heat inactivated fetal bovine serum (FBS), 10%), purchased from ATCC (USA).
as §1, with “hours. After the reaction for 24 hours, the cells were washed with FBS & phenol red-free media, and 100 μL of FBS & phenol red-free media was added.” for “hours.”
After irradiation with light at 10 mW/cm^2 for 10 minutes, 50 μL (final concentration: 261 nM) of SYTOX Green staining DNA of dead cells was added, followed by reaction at 37° C. for 30 minutes. 10 μL of DAPI staining DNA of live cells was added, followed by reaction for 5 minutes. Cell death was confirmed by observing KillerRed, SYTOX Green and DAPI fluorescence using a confocal microscope.

[3] = MCF-7, protein 10 μM, Co-h 150 μM 24 hours

Molecule	emission wavelength (fluorescence) [1] [nm]	excitation wavelength [1] [nm]	emission in bioluminescence assay (BRET) [2] [nm]	number of cells stained with DAPI (FACS) (MCF-7 cells; [3])	cell death with Co-h substrate (BT-474)	cell death with Co-h substrate (MCF-10A)	cell death with Co-h substrate (SK-BR-3)	number of cells exhibiting fluorescence of KillerRed (FACS) (MCF-7 cells; MCF-7, protein 10 μM 24 hours)	number of cells exhibiting SYTOX Green (FACS) (MCF-7 cells; [3])	cell death after light irradiation (MDA-MB-435)
B1	610	585	610							
B2				increases without a cytotoxic effect	none of the six breast cancer cell lines were killed	none of the six breast cancer cell lines were killed	none of the six breast cancer cell lines were killed			
B3				decreased				increased	increased	killing the three types of cancer cell lines
